Laboratory results reported in article PMC8062530 (2021).

Legend:
Experiment in all cases: BLI
[1] = target: T1, Siglec-14 Fc-fusion (UniProt Q08ET2 17-358)
T1 chain: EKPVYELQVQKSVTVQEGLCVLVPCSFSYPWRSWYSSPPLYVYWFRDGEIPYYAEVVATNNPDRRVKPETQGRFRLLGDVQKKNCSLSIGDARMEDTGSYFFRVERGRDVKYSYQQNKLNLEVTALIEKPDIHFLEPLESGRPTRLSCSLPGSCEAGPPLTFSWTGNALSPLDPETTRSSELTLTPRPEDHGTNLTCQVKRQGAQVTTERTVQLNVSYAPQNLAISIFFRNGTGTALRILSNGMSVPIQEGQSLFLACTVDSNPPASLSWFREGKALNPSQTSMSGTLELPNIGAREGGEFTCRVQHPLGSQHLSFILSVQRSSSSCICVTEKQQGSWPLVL

[2] = target: T2, Siglec-10 Fc-fusion (UniProt Q96LC7 17-550)
T2 chain: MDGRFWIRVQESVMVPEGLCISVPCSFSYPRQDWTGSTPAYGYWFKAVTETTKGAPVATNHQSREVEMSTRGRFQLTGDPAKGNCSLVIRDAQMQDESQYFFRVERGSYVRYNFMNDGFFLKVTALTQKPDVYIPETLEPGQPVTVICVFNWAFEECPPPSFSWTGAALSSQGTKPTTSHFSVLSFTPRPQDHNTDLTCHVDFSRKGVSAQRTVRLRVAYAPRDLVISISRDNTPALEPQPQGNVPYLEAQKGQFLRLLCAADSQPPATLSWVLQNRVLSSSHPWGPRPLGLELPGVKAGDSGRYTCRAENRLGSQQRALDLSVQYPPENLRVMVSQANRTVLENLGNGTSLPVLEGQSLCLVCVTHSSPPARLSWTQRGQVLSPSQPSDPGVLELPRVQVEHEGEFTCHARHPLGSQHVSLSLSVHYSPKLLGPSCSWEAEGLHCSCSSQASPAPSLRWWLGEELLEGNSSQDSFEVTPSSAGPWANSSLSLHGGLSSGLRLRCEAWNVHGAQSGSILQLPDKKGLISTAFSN

[3] = target: Siglec-9 Fc-fusion (UniProt Q9Y336 18-348)
Sequence of Siglec-9 Fc-fusion (Q9Y336 18-348): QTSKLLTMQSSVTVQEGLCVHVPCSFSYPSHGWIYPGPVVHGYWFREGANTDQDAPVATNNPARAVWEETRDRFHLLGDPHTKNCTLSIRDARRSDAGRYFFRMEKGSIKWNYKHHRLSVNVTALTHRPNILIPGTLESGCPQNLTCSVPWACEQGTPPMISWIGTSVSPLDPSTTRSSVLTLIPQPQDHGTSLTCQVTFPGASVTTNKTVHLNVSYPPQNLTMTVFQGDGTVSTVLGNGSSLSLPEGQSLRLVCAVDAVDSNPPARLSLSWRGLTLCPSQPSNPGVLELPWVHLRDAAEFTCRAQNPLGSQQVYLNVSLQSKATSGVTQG

- Kd [1]: 1100 nM
- Kd [2]: 760 nM
- Kd [3]: 4200 nM
B1: extracellular domain of PTGFRN (aa 26-832) with a C-terminal histidine tag (domain or fragment)
chain: VPTATLVRVVGTELVIPCNVSDYDGPSEQNFDWSFSSLGSSFVELASTWEVGFPAQLYQERLQRGEILLRRTANDAVELHIKNVQPSDQGHYKCSTPSTDATVQGNYEDTVQVKVLADSLHVGPSARPPPSLSLREGEPFELRCTAASASPLHTHLALLWEVHRGPARRSVLALTHEGRFHPGLGYEQRYHSGDVRLDTVGSDAYRLSVSRALSADQGSYRCIVSEWIAEQGNWQEIQEKAVEVATVVIQPSVLRAAVPKNVSVAEGKELDLTCNITTDRADDVRPEVTWSFSRMPDSTLPGSRVLARLDRDSLVHSSPHVALSHVDARSYHLLVRDVSKENSGYYYCHVSLWAPGHNRSWHKVAEAVSSPAGVGVTWLEPDYQVYLNASKVPGFADDPTELACRVVDTKSGEANVRFTVSWYYRMNRRSDNVVTSELLAVMDGDWTLKYGERSKQRAQDGDFIFSKEHTDTFNFRIQRTTEEDRGNYYCVVSAWTKQRNNSWVKSKDVFSKPVNIFWALEDSVLVVKARQPKPFFAAGNTFEMTCKVSSKNIKSPRYSVLIMAEKPVGDLSSPNETKYIISLDQDSVVKLENWTDASRVDGVVLEKVQEDEFRYRMYQTQVSDAGLYRCMVTAWSPVRGSLWREAATSLSNPIEIDFQTSGPIFNASVHSDTPSVIRGDLIKLFCIITVEGAALDPDDMAFDVSWFAVHSFGLDKAPVLLSSLDRKGIVTTSRRDWKSDLSLERVSVLEFLLQVHGSEDQDFGNYYCSVTPWVKSPTGSWQKEAEIHSKPVFITVKMDVLNAFKYP
